US10550165B2, “Peptide for inducing regeneration of tissue and use thereof” (STEMRIM INC., priority 2011, dated 2020)

Legend:
[1] = tested on: mouse bone marrow mesenchymal stem cell line (MSC-1 cells), PDGFRα-positive; assay: Migration assay (Boyden / 48-well chemotaxis chamber) on bone marrow mesenchymal stem cell line MSC-1; format: cell-based; conditions: for migration-promoting activity per equal mass, 2-215 taken as 1 / migration-promoting activity per molar concentration, 2-215 taken as 1: FIGS. 18C and 18D
Protocol: Cells of a mouse bone marrow mesenchymal stem cell line (MSC-1 cells, established by Tamai et al. of Osaka University (PDGFRα-positive cells in bone marrow are mobilized by high mobility group box 1 (HMGB1) to regenerate injured epithelia. (Tamai et al., Proc Natl Acad Sci USA. Apr. 4, 2011))) were detached from dishes using trypsin, and collected by centrifugation at 1200 rpm and 4° C. for 10 minutes. The resulting pellet was loosened and suspended at a cell concentration of 2.0×10^6 to 3.0×10^6 cells/ml by adding Dulbecco's Modified Eagle Medium (D-MEM) containing 10% fetal bovine serum (FBS). The recombinant protein and peptides produced in HEK293 were diluted with D-MEM containing 10% FBS. The negative control used was phosphate buffered saline (PBS). An acrylic Boyden chamber was used; cells of the mouse bone marrow mesenchymal stem cell line prepared at a cell concentration of 3×10^6 cells/ml were placed in its upper layer, while a diluted protein or peptide is added to the bottom layer. More specifically, a 28 μl aliquot of a protein or peptide solution was added to each well of the bottom plate of a 48-well chemotaxis chamber (NEURO PROBE 48WELL CHEMOTAXIS CHAMBER), and a polycarbonate membrane with 8 μm pores (Neuro Probe, Inc, Cat: 866-417-0014) was placed on the bottom plate. Then, an upper plate was placed on the membrane and screwed tightly. 50 μl of cells of the mouse bone marrow mesenchymal stem cell line after concentration adjustment were added to the upper plate wells. The chamber was placed in an incubator under 5% CO2 at 37° C. After four hours, the membrane was removed from the chamber and stained with Diff-Quik (Sysmex, Cat: 16920) to detect cells that migrated through membrane pores to the lower compartment.
The peptides listed below were custom synthesized using the solid phase method by Medical & Biological Laboratories (MBL). The peptides were synthesized based on the mouse HMGB1 sequence (SEQ ID NO: 3). Synthetic peptides described in subsequent Examples were also prepared based on the mouse HMGB1 sequence. • A synthetic peptide consisting of the amino acid sequence from positions 1 to 10 of HMGB1 (1-10); • a synthetic peptide consisting of the amino acid sequence from positions 1 to 34 of HMGB1 (1-34); • a synthetic peptide consisting of the amino acid sequence from positions 37 to 62 of HMGB1 (37-62); • a synthetic peptide consisting of the amino acid sequence from positions 27 to 62 of HMGB1 (27-62); • a synthetic peptide consisting of the amino acid sequence from positions 56 to 72 of HMGB1 (56-72); • a synthetic peptide consisting of the amino acid sequence from positions 11 to 20 of HMGB1 (11-20); • a synthetic peptide consisting of the amino acid sequence from positions 11 to 25 of HMGB1 (11-25); • a synthetic peptide consisting of the amino acid sequence from positions 11 to 30 of HMGB1 (11-30); • a synthetic peptide consisting of the amino acid sequence from positions 11 to 34 of HMGB1 (11-34); • a synthetic peptide consisting of the amino acid sequence from positions 11 to 44 of HMGB1 (11-44); • a synthetic peptide consisting of the amino acid sequence from positions 17 to 44 of HMGB1 (17-44); • a synthetic peptide consisting of the amino acid sequence from positions 1 to 25 of HMGB1 (1-25); and the whole mouse HMGB1 produced in HEK293 (1-215(HEK)) as a positive control were adjusted to 100 μg/ml and placed in the lower layer of a chemotaxis chamber to assess the migration-promoting activity on bone marrow mesenchymal stem cell line (MSC-1). Results
As positive controls, centrifuged supernatant of the skin of a one-day-old mouse (one individual) incubated in PBS at 4° C. for 12 hours, and the whole mouse HMGB1 (HMGB1(HEK_1-215)) produced in HEK293 were used. […]

[2] = tested on: human-derived bone marrow mesenchymal stem cells (hMSC); assay: Migration assay on human-derived bone marrow mesenchymal stem cells; format: cell-based; conditions: human HMGB1 fragments produced in E. coli, 2 μM, FIG. 21B
Description: Human HMGB1 fragments (2-215, 2-84, 2-44, 45-84, 85-169, 89-185, 89-195, and 89-205) were produced in E. coli and purified using appropriate columns in the same manner as described in Examples 14, 15, and 16 above. However, 89-215 was purified by the same method as used for 89-205 in Example 15.
Using human-derived bone marrow mesenchymal stem cells, each fragment was examined by the same migration assay performed on mouse-derived bone marrow mesenchymal stem cells (MSC-1) as described above. The fragments were used at a final concentration of 2 μM. The human-derived bone marrow mesenchymal stem cells used were hMSC (human Mesenchymal Stem Cell, Takara) at fourth passage. The growth medium used was a mesenchymal stem cell growth medium (MF medium, TOYOBO). The cells were cultured in an incubator under 5% CO2 at 37° C. The medium was changed with a fresh medium every two to four days. The cells were passaged when they reached 80% confluency.

[3] = human HMGB1 fragments produced in E. coli, 2 μM, FIG. 18B
[4] = human HMGB1 fragments produced in E. coli, 2 μM
[5] = human HMGB1 fragments 89-215, 89-205, 89-195, 89-185 and their Q column fractions, E. coli, 2 μM, FIGS. 19B and 19D
[6] = human HMGB1 fragments 2-215, 2-205, 2-195, 2-185 produced in E. coli, 2 μM, FIG. 21A

Which results are given for “2-44: human HMGB1 fragment, positions 2 to 44, produced in E. coli (GKGDPKKPRGKMSSYAFFVQTCREEHKKKHPDASVNFSEFSKK; UniProt P09429 2-44, looked up, fragment)”?
migration-promoting activity [1, 3]: showed migration-promoting activity on bone marrow mesenchymal stem cells; migration-promoting activity per equal mass, 2-215 taken as 1 [1, 4]: 7.1 times; migration-promoting activity per molar concentration, 2-215 taken as 1 [1, 4]: 1.82 times; migration-promoting activity [2]: greater than human HMGB1 fragment (2-215)

How did the migration-promoting activity [1, 3] turn out when “45-84: peptide of positions 45 to 84 of mouse HMGB1, produced using HEK293 (CSERWKTMSAKEKGKFEDMAKADKARYEREMKTYIPPKGE; UniProt P63158 45-84, looked up, fragment)” was run?
Its migration-promoting activity is “showed migration-promoting activity on bone marrow mesenchymal stem cells”.

And the “migration-promoting activity per equal mass, 2-215 taken as 1” value [1, 4]?
The value was 8.1 times.

And the “migration-promoting activity per molar concentration, 2-215 taken as 1” value [1, 4]?
The value was 2.04 times.

What about the migration-promoting activity ([1]; protein and peptides produced using HEK293 (mouse HMGB1), 50 μg/ml, 4 h, FIG. 2A) of the same molecule?
Its migration-promoting activity is “showed migration-promoting activity”.

And the migration-promoting activity [2]?
Its migration-promoting activity is “greater than human HMGB1 fragment (2-215)”.

B1: 2-84: human HMGB1 fragment, positions 2 to 84, produced in E. coli (protein, UniProt P09429 2-84, looked up, fragment)
chain: GKGDPKKPRGKMSSYAFFVQTCREEHKKKHPDASVNFSEFSKKCSERWKTMSAKEKGKFEDMAKADKARYEREMKTYIPPKGE
Which results are given for B1?
migration-promoting activity ([1]; fragment 2-84 and fusions with acidic tail fragments, produced in E. coli, FIG. 21D): exhibited migration-promoting activity; migration-promoting activity [1, 3]: showed migration-promoting activity on bone marrow mesenchymal stem cells; migration-promoting activity per equal mass, 2-215 taken as 1 [1, 4]: 5.5 times; migration-promoting activity per molar concentration, 2-215 taken as 1 [1, 4]: 2.37 times; migration-promoting activity [2]: greater than human HMGB1 fragment (2-215)

B2: 2-70: human HMGB1 fragment, positions 2 to 70, produced in E. coli (protein, UniProt P09429 2-70, looked up, fragment)
chain: GKGDPKKPRGKMSSYAFFVQTCREEHKKKHPDASVNFSEFSKKCSERWKTMSAKEKGKFEDMAKADKAR
How did the migration-promoting activity [1, 3] turn out when B2 was run?
Its migration-promoting activity is “showed migration-promoting activity on bone marrow mesenchymal stem cells”.

B3: 2-81: human HMGB1 fragment, positions 2 to 81, produced in E. coli (protein, UniProt P09429 2-81, looked up, fragment)
chain: GKGDPKKPRGKMSSYAFFVQTCREEHKKKHPDASVNFSEFSKKCSERWKTMSAKEKGKFEDMAKADKARYEREMKTYIPP
For B3, which migration-promoting activity [1, 3] is on record?
The migration-promoting activity was “showed migration-promoting activity on bone marrow mesenchymal stem cells”.

B4: 2-170: human HMGB1 fragment, positions 2 to 170, produced in E. coli (protein, UniProt P09429 2-170, looked up, fragment)
chain: GKGDPKKPRGKMSSYAFFVQTCREEHKKKHPDASVNFSEFSKKCSERWKTMSAKEKGKFEDMAKADKARYEREMKTYIPPKGETKKKFKDPNAPKRPPSAFFLFCSEYRPKIKGEHPGLSIGDVAKKLGEMWNNTAADDKQPYEKKAAKLKEKYEKDIAAYRAKGKPDA
For B4, which migration-promoting activity [1, 3] is on record?
The migration-promoting activity was “showed migration-promoting activity on bone marrow mesenchymal stem cells”.

B5: 93-215: human HMGB1 fragment, positions 93 to 215, produced in E. coli (protein, UniProt P09429 93-215, looked up, fragment)
chain: NAPKRPPSAFFLFCSEYRPKIKGEHPGLSIGDVAKKLGEMWNNTAADDKQPYEKKAAKLKEKYEKDIAAYRAKGKPDAAKKGVVKAEKSKKKKEEEEDEEDEEDEEEEEDEEDEDEEEDDDDE
For B5, which migration-promoting activity [1, 3] is on record?
Its migration-promoting activity is “showed migration-promoting activity on bone marrow mesenchymal stem cells”.

B6: 89-195: human HMGB1 fragment, positions 89 to 195, produced in E. coli (protein, UniProt P09429 89-195, looked up, fragment)
chain: FKDPNAPKRPPSAFFLFCSEYRPKIKGEHPGLSIGDVAKKLGEMWNNTAADDKQPYEKKAAKLKEKYEKDIAAYRAKGKPDAAKKGVVKAEKSKKKKEEEEDEEDEE
For B6, which migration-promoting activity [1, 5] is on record?
Its migration-promoting activity is “stronger activity than any fragments between positions 89 and 215”.

And the migration-promoting activity [2]?
Its migration-promoting activity is “exhibited stronger activity”.

B7: 89-215: human HMGB1 fragment, positions 89 to 215, produced in E. coli (protein, UniProt P09429 89-215, looked up, fragment)
chain: FKDPNAPKRPPSAFFLFCSEYRPKIKGEHPGLSIGDVAKKLGEMWNNTAADDKQPYEKKAAKLKEKYEKDIAAYRAKGKPDAAKKGVVKAEKSKKKKEEEEDEEDEEDEEEEEDEEDEDEEEDDDDE
Which migration-promoting activity [1, 5] does the source give for B7 here?
Its migration-promoting activity is “weak migration-promoting activity”.

B8: 89-205: human HMGB1 fragment, positions 89 to 205, produced in E. coli (protein, UniProt P09429 89-205, looked up, fragment)
chain: FKDPNAPKRPPSAFFLFCSEYRPKIKGEHPGLSIGDVAKKLGEMWNNTAADDKQPYEKKAAKLKEKYEKDIAAYRAKGKPDAAKKGVVKAEKSKKKKEEEEDEEDEEDEEEEEDEED
For B8, which migration-promoting activity [1, 5] is on record?
The migration-promoting activity was “weak migration-promoting activity”.

B9: 2-195: human HMGB1 fragment, amino acids of positions 2 to 195, produced in E. coli (protein, UniProt P09429 2-195, looked up, fragment)
chain: GKGDPKKPRGKMSSYAFFVQTCREEHKKKHPDASVNFSEFSKKCSERWKTMSAKEKGKFEDMAKADKARYEREMKTYIPPKGETKKKFKDPNAPKRPPSAFFLFCSEYRPKIKGEHPGLSIGDVAKKLGEMWNNTAADDKQPYEKKAAKLKEKYEKDIAAYRAKGKPDAAKKGVVKAEKSKKKKEEEEDEEDEE
How did the migration-promoting activity [1, 6] turn out when B9 was run?
Its migration-promoting activity is “stronger migration-promoting activity than fragments 2-215 and 2-205”.

B10: 2-185: human HMGB1 fragment, amino acids of positions 2 to 185, produced in E. coli (protein, UniProt P09429 2-185, looked up, fragment)
chain: GKGDPKKPRGKMSSYAFFVQTCREEHKKKHPDASVNFSEFSKKCSERWKTMSAKEKGKFEDMAKADKARYEREMKTYIPPKGETKKKFKDPNAPKRPPSAFFLFCSEYRPKIKGEHPGLSIGDVAKKLGEMWNNTAADDKQPYEKKAAKLKEKYEKDIAAYRAKGKPDAAKKGVVKAEKSKKKK
For B10, which migration-promoting activity [1, 6] is on record?
Its migration-promoting activity is “stronger migration-promoting activity than fragments 2-215 and 2-205”.
